Biological target: T1, carcinoembryonic antigen (CEA) expressed on LS 174T cells (human, UniProt P06731 35-685)
T1 sequence (looked up): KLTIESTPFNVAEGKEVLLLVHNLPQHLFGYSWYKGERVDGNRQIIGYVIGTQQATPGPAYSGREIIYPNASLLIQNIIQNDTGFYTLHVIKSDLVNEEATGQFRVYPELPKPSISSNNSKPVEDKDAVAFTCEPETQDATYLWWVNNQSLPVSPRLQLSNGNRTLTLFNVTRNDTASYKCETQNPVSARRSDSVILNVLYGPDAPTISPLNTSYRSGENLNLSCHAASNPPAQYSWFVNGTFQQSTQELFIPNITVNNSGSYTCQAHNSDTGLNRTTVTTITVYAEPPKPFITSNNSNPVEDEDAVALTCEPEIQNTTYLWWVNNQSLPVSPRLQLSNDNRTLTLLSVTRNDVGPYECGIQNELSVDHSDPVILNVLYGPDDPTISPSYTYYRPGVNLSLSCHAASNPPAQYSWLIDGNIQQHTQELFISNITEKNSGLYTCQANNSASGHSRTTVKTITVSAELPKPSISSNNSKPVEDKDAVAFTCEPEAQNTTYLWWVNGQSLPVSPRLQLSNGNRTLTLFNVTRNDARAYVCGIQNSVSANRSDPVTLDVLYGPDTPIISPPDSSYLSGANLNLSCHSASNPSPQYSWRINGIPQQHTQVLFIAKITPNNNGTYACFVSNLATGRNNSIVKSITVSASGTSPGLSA
Experiment: cell-based or functional assay

B1: cAb-CEA5-βL conjugate (other)
chain: QVQLVESGGGSVQAGGSLRLSCAASGDTYGSYWMGWFRQAPGKEREGVAAINRGGGYTVYADSVKGRFTISRDTAKNTVYLQMNSLRPDDTADYYCAASGVLGGLHEDWFNYWGQGTQVTVSSAHHSEDPSSKAPKAPMGTPVSEKQLAEVVANTITPLMKAQSVPGMAVAVIYQGKPHYYTFGKADIAANKPVTPQTLFELGSISKTFTGVLGGDAIARGEISLDDAVTRYWPQLTGKQWQGIRMLDLATYTAGGLPLQVPDEVTDNASLLRFYQNWQPQWKPGTTRLYANASIGLFGALAVKPSGMPYEQAMTTRVLKPLKLDHTWINVPKAEEAHYAWGYRDGKAVRVSPGMLDAQAYGVKTNVQDMANWVMANMAPENVADASLKQGIALAQSRYWRIGSMYQGLGWEMLNWPVEANTVVEGSDSKVALAPLPVAEVNPPAPPVKASWVHKTGSTGGFGSYVAFIPEKQIGIVMLANTSYPNPARVEAAYHILEALQHHHHHH
concentration of 125I-labelled conjugate in LS 174T tumor xenografts against other tissues in nude mice: > 10 fold
